Data reported in the RNAGym collection of RNA variant scans (doi:10.7554/elife.80360).

B1: Twister Ribozyme (parent)
chain: AACACUGCCAAUGCCGGUCCCAAGCCCGGAUAAAAGUGGAGGGGGCGG

Variants of: B1
Test: self-cleavage, relative activity (ratio to wild type); higher = more cleavage; co-transcriptional

In order of rising self-cleavage:
1. AACACUGCCAAUGCCGGUCCCAAGCCCGGAUAAAAGUGGUGGUGGCGG [A40U G43U]  0.0936
2. AACACUGCCAAUGCCGGUCCCAAGCCCGGAUAAAAGUGGGGAGGGCGG [A40G G42A]  0.113
3. AACACUGCCAAUGCCGGUCCCAAGCCCGGAUAAAAGUGGGGGGGGCGU [A40G G48U]  0.131
4. AACACUGCCAAUGCCGGUCCCAAGCCCGGAUAAAAGUGUAGCGGGCGG [G39U G42C]  0.133
5. AACACUGCCAAUGCCGGUCCCAAGCCCGGAUAAAAGUGGAAGUGGCGG [G41A G43U]  0.135
6. AACACUGCCAAUGCCGGUCCCAAGCCCGGAUAAAAGUGGGGGCGGCGG [A40G G43C]  0.135
7. AACACUGCCAAUGCCGGUCCCAAGCCCGGAUAAAAGUGGAUAGGGCGG [G41U G42A]  0.136
8. AACACUGCCAAUGCCGGUCCCAAGCCCGGAUAAAAGUGGUGAGGGCGG [A40U G42A]  0.136
9. AACACUGCCAAUGCCGGUCCCAAGCCCGGAUAAAAGUGGCGGUGGCGG [A40C G43U]  0.136
10. AACACUGCCAAUGCCGGUCCCAAGCCCGGAUAAAAGUGGGGGUGGCGG [A40G G43U]  0.136
11. AACACUGCCAAUGCCGGUCCCAAGCCCGGAUAAAAGUGGCGGAGGCGG [A40C G43A]  0.138
12. AACACUGCCAAUGCCGGUCCCAAGCCCGGAUAAAAGUGGCGUGGGCGG [A40C G42U]  0.139
13. AACACUGCCAAUGCCGGUCCCAAGCCCGGAUAAAAGUGGAAGCGGCGG [G41A G43C]  0.14
14. AACACUGCCAAUGCCGGUCCCAAGCCCGGAUAAAAGUGGUUGGGGCGG [A40U G41U]  0.145
15. AACACUGCCAAUGCCGGUCCCAAGCCCGGAUAAAAGUGGAUGUGGCGG [G41U G43U]  0.147
16. AACACUGCCAAUGCCGGUCCCAAGCCCGGAUAAAAGUGGACGGUGCGG [G41C G44U]  0.147
17. AACACUGCCAAUGCCGGUCCCAAGCCCGGAUAAAAGUGGCCGGGGCGG [A40C G41C]  0.15
18. AACACUGCCAAUGCCGGUCCCAAGCCCGGAUAAAAGUGUAGGGAGCGG [G39U G44A]  0.15
19. AACACUGCCAAUGCCGGUCCCAAGCCCGGAUAAAAGUGGCGAGGGCGG [A40C G42A]  0.152
20. AACACUGCCAAUGCCGGUCCCAAGCCCGGAUAAAAGUGGCGGGGCCGG [A40C G45C]  0.154
21. AACACUGCCAAUGCCGGUCCCAAGCCCGGAUAAAAGUGUAGGGCGCGG [G39U G44C]  0.155
22. AACACUGCCAAUGCCGGUCCCAAGCCCGGAUAAAAGUGGUGCGGGCGG [A40U G42C]  0.157
23. AACACUGCCAAUGCCGGUCCCAAGCCCGGAUAAAAGUGGUGGGGGCGA [A40U G48A]  0.159
24. AACACUGCCAAUGCCGGUCCCAAGCCCGGAUAAAAGUGGUGGGGGGGG [A40U C46G]  0.16
25. AACACUGCCAAUGCCGGUCCCAAGCCCGGAUAAAAGUGGUGGGGGUGG [A40U C46U]  0.163
26. AACACUGCCAAUGCCGGUCCCAAGCCCGGAUAAAAGUGGUCGGGGCGG [A40U G41C]  0.17
27. AACACUGCCAAUGCCGGUCCCAAGCCCGGAUAAAAGUGGAGCGCGCGG [G42C G44C]  0.17
28. AACACUGCCAAUGCCGGUCCCAAGCCCGGAUAAAAGUGGCGGGGUCGG [A40C G45U]  0.171
29. AACACUGCCAAUGCCGGUCCCAAGCCCGGAUAAAAGUGGAGAGUGCGG [G42A G44U]  0.173
30. AACACUGCCAAUGCCGGUCCCAAGCCCGGAUAAAAGUGGAGAGCGCGG [G42A G44C]  0.178
31. AACACUGCCAAUGCCGGUCCCAAGCCCGGAUAAAAGUGGUGGGUGCGG [A40U G44U]  0.183
32. AACACUGCCAAUGCCGGUCCCAAGCCCGGAUAAAAGUGGGGGGGGGGG [A40G C46G]  0.184
33. AACACUGCCAAUGCCGGUCCCAAGCCCGGAUAAAAGUGUAGGGGGCUG [G39U G47U]  0.187
34. AACACUGCCAAUGCCGGUCCCAAGCCCGGAUAAAAGUGGCGGGGGCGA [A40C G48A]  0.192
35. AACACUGCCAAUGCCGGUCCCAAGCCCGGAUAAAAGUGGCGGGGGAGG [A40C C46A]  0.202
36. AACACUGCCAAUGCCGGUCCCAAGCCCGGAUAAAAGUGGAAGGCGCGG [G41A G44C]  0.205
37. AACACUGCCAAUGCCGGUCCCAAGCCCGGAUAAAAGUGGUGGGGGCGC [A40U G48C]  0.209
38. AACACUGCCAAUGCCGGUCCCAAGCCCGGAUAAAAGUGGUGGGGGCGU [A40U G48U]  0.21
39. AACACUGCCAAUGCCGGUCCCAAGCCCGGAUAAAAGUGGGGCGGGCGG [A40G G42C]  0.215
40. AACACUGCCAAUGCCGGUCCCAAGCCCGGAUAAAAGUGGAAGGUGCGG [G41A G44U]  0.228
41. AACACUGCCAAUGCCGGUCCCAAGCCCGGAUAAAAGUGGCGGGGGCUG [A40C G47U]  0.228
42. AACACUGCCAAUGCCGGUCCCAAGCCCGGAUAAAAGUGGCGGGGACGG [A40C G45A]  0.23
43. AACACUGCCAAUGCCGGUCCCAAGCCCGGAUAAAAGUGGCGGGGGCGU [A40C G48U]  0.284
44. AACACUGCCAAUGCCGGUCCCAAGCCCGGAUAAAAGUGGAGAGGGCGA [G42A G48A]  0.296
45. AACACUGCCAAUGCCGGUCCCAAGCCCGGAUAAAAGUGGACGGGGCGG [G41C]  0.326
46. AACACUGCCAAUGCCGGUCCCAAGCCCGGAUAAAAGUGGAUGGGGCAG [G41U G47A]  0.349
47. AACACUGCCAAUGCCGGUCCCAAGCCCGGAUAAAAGUGGAGAGAGCGG [G42A G44A]  0.377
48. AACACUGCCAAUGCCGGUCCCAAGCCCGGAUAAAAGUGGAGCGAGCGG [G42C G44A]  0.396
49. AACACUGCCAAUGCCGGUCCCAAGCCCGGAUAAAAGUGGAGAGGGCGU [G42A G48U]  0.397
50. AACACUGCCAAUGCCGGUCCCAAGCCCGGAUAAAAGUGGACGGGUCGG [G41C G45U]  0.429
51. AACACUGCCAAUGCCGGUCCCAAGCCCGGAUAAAAGUGGAAGGAGCGG [G41A G44A]  0.483
52. AACACUGCCAAUGCCGGUCCCAAGCCCGGAUAAAAGUGGAAGGGGCGG [G41A]  0.665
53. AACACUGCCAAUGCCGGUCCCAAGCCCGGAUAAAAGUGGAUGGGGCGC [G41U G48C]  0.738
54. AACACUGCCAAUGCCGGUCCCAAGCCCGGAUAAAAGUGGAUGGGGCGG [G41U]  0.752
